Source: paper PMC12440807

Molecular target: RNA polymerase II;RECQL5;CSB;CSA-DDB1;UVSSA;ELOF1 (Sus scrofa domesticus?;Homo …, UniProt A0A8D1DPV6;A0A0B8RVL1;P19387;O15514;I3LSI7;P61218;P62487;P52434;P36954;P52435;P6 …, |||||)
Test: cryo-EM; 1 mM ADP; phosphorylated Pol II; glutaraldehyde cross-linked; 3.5 A; EMSA: 20 mM HEPES pH 7.5, 66 mM NaCl, 5% glycerol, 1 mM DTT, 0.25 mg/ml BSA, on ice 30 min; 6% gel, 0.5x TBE, 4 C
Settings: protein: native;recombinant;recombinant;recombinant;recombinant;recombinant; copies: 1;1;1;1;1;1;1;1;1;1;1;1;1;1;1;1;1;1; 15-nt mismatch bubble; RNA 45 nt, 3' end hybridized to template

B1: EC-TCR DNA-RNA scaffold (mixed)
DNA 1: CGCTCTGCTCCTTCTCCCATCCTCTCGATGGCTATGAGATCAACTAG
DNA 2: CTAGTTGATCTCATATTTCATTCCTACTCAGGAGAAGGAGCAGAGCG
RNA: ACAUCAUAACAUUUGAACAAGAAUAUAUAUACAAAAUCGAGAGGA
B1: binds.
